Results taken from patent US20230265151A1, “GIP/GLP1 CO-AGONIST COMPOUNDS” (priority 2020, published 2023).
Substitutions are numbered along the chain they refer to.

T1: human GIP receptor (human, UniProt P48546 22-466)
T1 construct: whole, on cells; also called hGIPR; human glucose-dependent insulinotropic polypeptide receptor
T1 sequence (looked up): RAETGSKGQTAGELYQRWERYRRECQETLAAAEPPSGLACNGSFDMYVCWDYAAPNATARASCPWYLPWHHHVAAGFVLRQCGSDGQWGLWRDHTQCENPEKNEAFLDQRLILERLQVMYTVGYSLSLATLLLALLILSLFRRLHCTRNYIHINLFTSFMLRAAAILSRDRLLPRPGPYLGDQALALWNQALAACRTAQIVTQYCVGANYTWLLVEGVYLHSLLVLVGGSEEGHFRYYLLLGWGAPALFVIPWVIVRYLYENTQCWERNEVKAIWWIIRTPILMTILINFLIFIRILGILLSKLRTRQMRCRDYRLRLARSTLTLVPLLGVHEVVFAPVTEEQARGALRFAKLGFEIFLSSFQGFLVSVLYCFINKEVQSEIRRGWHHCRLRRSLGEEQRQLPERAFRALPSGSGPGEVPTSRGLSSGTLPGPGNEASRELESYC

B1: Y-Aib-EGT-αMeF(2F)-TSD-4Pal-SI-αMeL-LD-Orn-K((2-[2-(2-Amino-ethoxy)-ethoxy]-acetyl)2-(γ-Glu)-CO-(CH2)10-CH3)AQ-Aib-Orn-FI-(D-Glu)-αMeY-LIK((2-[2-(2-Amino-ethoxy … (peptide)
peptide: YXEGTXTSDXSIXLDXKAQXXFIXXLIKGGPSSGAPPPS
modifications: Aib2, αMeF(2F)6, 4Pal10, αMeL13, Orn16, K17(Z1), Aib20, Orn21, D-Glu24, αMeY25, K28(Z1), C-term NH2; Z1=AEEA2-(γ-Glu)-CO-(CH2)10-CH3
B2: Y-Aib-EGT-αMeF(2F)-TSD-4Pal-Aib-I-αMeL-LD-Orn-K((2-[2-(2-Amino-ethoxy)-ethoxy]-acetyl)3-(γ-Glu)-CO-(CH2)10-CH3)AQ-Aib-EFI-(D-Glu)-αMeY-LIK((2-[2-(2-Amino-ethoxy … (peptide)
peptide: B1 peptide with S11X, X21E
modifications: Aib2, αMeF(2F)6, 4Pal10, Aib11, αMeL13, Orn16, K17(Z1), Aib20, D-Glu24, αMeY25, K28(Z1), C-term NH2; Z1=AEEA3-(γ-Glu)-CO-(CH2)10-CH3
B3: Y-Aib-EGT-αMeF(2F)-TSD-4Pal-SI-αMeL-LD-Orn-K((2-[2-(2-Amino-ethoxy)-ethoxy]-acetyl)2-(γ-Glu)-CO-(CH2)12-CH3)AQ-Aib-EFI-(D-Glu)-αMeY-LIEGGK((2-[2-(2-Amino-ethoxy … (peptide)
peptide: B1 peptide with X21E, K28E, P31K
modifications: Aib2, αMeF(2F)6, 4Pal10, αMeL13, Orn16, K17(Z1), Aib20, D-Glu24, αMeY25, K31(Z1), C-term NH2; Z1=AEEA2-(γ-Glu)-CO-(CH2)12-CH3
B4: Y-Aib-EGT-αMeF(2F)-TSD-4Pal-Aib-I-αMeL-LD-Orn-QAQ-Aib-Orn-FIK((2-[2-(2-Amino-ethoxy)-ethoxy]-acetyl)2-(γ-Glu)-CO-(CH2)12-CO2H)-αMeY-LIK((2-[2-(2-Amino-ethoxy)-e … (peptide)
peptide: B1 peptide with S11X, K17Q, X24K
modifications: Aib2, αMeF(2F)6, 4Pal10, Aib11, αMeL13, Orn16, Aib20, Orn21, K24(Z1), αMeY25, K28(Z1), C-term NH2; Z1=AEEA2-(γ-Glu)-CO-(CH2)12-CO2H
B5: Y-Aib-EGT-αMeF(2F)-TSD-4Pal-Aib-I-αMeL-LD-Orn-K((2-[2-(2-Amino-ethoxy)-ethoxy]-acetyl)2-(γ-Glu)-CO-(CH2)10-CH3)AQ-Aib-EFI-(D-Glu)-αMeY-LIK((2-[2-(2-Amino-ethoxy … (peptide)
peptide: B1 peptide with S11X, X21E
modifications: Aib2, αMeF(2F)6, 4Pal10, Aib11, αMeL13, Orn16, K17(Z1), Aib20, D-Glu24, αMeY25, K28(Z1), C-term NH2; Z1=AEEA2-(γ-Glu)-CO-(CH2)10-CH3
B6: Y-Aib-EGT-αMeF(2F)-TSD-4Pal-Aib-I-αMeL-LD-Orn-K((2-[2-(2-Amino-ethoxy)-ethoxy]-acetyl)2-(γ-Glu)-CO-(CH2)10-CH3)AQ-Aib-Orn-FI-(D-Glu)-αMeY-LIK((2-[2-(2-Amino-eth … (peptide)
peptide: B1 peptide with S11X
modifications: Aib2, αMeF(2F)6, 4Pal10, Aib11, αMeL13, Orn16, K17(Z1), Aib20, Orn21, D-Glu24, αMeY25, K28(Z1), C-term NH2; Z1=AEEA2-(γ-Glu)-CO-(CH2)10-CH3
B7: Y-Aib-EGT-αMeF(2F)-TSD-4Pal-SI-αMeL-LD-Orn-K((2-[2-(2-Amino-ethoxy)-ethoxy]-acetyl)2-(γ-Glu)-CO-(CH2)14-CH3)AQ-Aib-EFI-(D-Glu)-αMeY-LIEGGK((2-[2-(2-Amino-ethoxy … (peptide)
peptide: B1 peptide with X21E, K28E, P31K
modifications: Aib2, αMeF(2F)6, 4Pal10, αMeL13, Orn16, K17(Z1), Aib20, D-Glu24, αMeY25, K31(Z1), C-term NH2; Z1=AEEA2-(γ-Glu)-CO-(CH2)14-CH3
B8: Y-Aib-EGT-αMeF(2F)-TSD-4Pal-Aib-I-αMeL-LD-Orn-QAQ-Aib-Orn-FIK((2-[2-(2-Amino-ethoxy)-ethoxy]-acetyl)2-(γ-Glu)-(10-(4-carboxyphenoxy)decanoyl))-αMeY-LIK((2-[2-(2 … (peptide)
peptide: B1 peptide with S11X, K17Q, X24K
modifications: Aib2, αMeF(2F)6, 4Pal10, Aib11, αMeL13, Orn16, Aib20, Orn21, K24(Z1), αMeY25, K28(Z1), C-term NH2; Z1=AEEA2-(γ-Glu)-(10-(4-carboxyphenoxy)decanoyl)
B9: Y-Aib-EGT-αMeF(2F)-TSD-4Pal-Aib-I-αMeL-LD-Orn-K((2-[2-(2-Amino-ethoxy)-ethoxy]-acetyl)-(γ-Glu)-(10-(4-carboxyphenoxy)decanoyl))AQ-Aib-EFIe-αMeY-LIK((2-[2-(2-Ami … (peptide)
peptide: B1 peptide with S11X, X21E
modifications: Aib2, αMeF(2F)6, 4Pal10, Aib11, αMeL13, Orn16, K17(Z1), Aib20, D-Glu24 (printed e), αMeY25, K28(Z1), C-term NH2; Z1=AEEA-(γ-Glu)-(10-(4-carboxyphenoxy)decanoyl)
B10: Y-Aib-EGT-αMeF(2F)-TSDK((2-[2-(2-Amino-ethoxy)-ethoxy]-acetyl)2-(γ-Glu)-CO-(CH2)10-CH3)-Aib-I-αMeL-LD-Orn-K((2-[2-(2-Amino-ethoxy)-ethoxy]-acetyl)2-(γ-Glu)-CO-( … (peptide)
peptide: B1 peptide with X10K, S11X, K28E
modifications: Aib2, αMeF(2F)6, K10(Z1), Aib11, αMeL13, Orn16, K17(Z1), Aib20, Orn21, D-Glu24, αMeY25, C-term NH2; Z1=AEEA2-(γ-Glu)-CO-(CH2)10-CH3
B11: Y-Aib-EGT-αMeF(2F)-TSD-4Pal-Aib-I-αMeL-LD-Orn-K((2-[2-(2-Amino-ethoxy)-ethoxy]-acetyl)3-(γ-Glu)-CO-(CH2)10-CH3)AQ-Aib-Orn-FI-(D-Glu)-αMeY-LIK((2-[2-(2-Amino-eth … (peptide)
peptide: B1 peptide with S11X
modifications: Aib2, αMeF(2F)6, 4Pal10, Aib11, αMeL13, Orn16, K17(Z1), Aib20, Orn21, D-Glu24, αMeY25, K28(Z1), C-term NH2; Z1=AEEA3-(γ-Glu)-CO-(CH2)10-CH3
B12: Y-Aib-EGT-αMeF(2F)-TSDK((2-[2-(2-Amino-ethoxy)-ethoxy]-acetyl)3-(γ-Glu)-CO-(CH2)10-CH3)-Aib-I-αMeL-LD-Orn-K((2-[2-(2-Amino-ethoxy)-ethoxy]-acetyl)3-(γ-Glu)-CO-( … (peptide)
peptide: B1 peptide with X10K, S11X, K28E
modifications: Aib2, αMeF(2F)6, K10(Z1), Aib11, αMeL13, Orn16, K17(Z1), Aib20, Orn21, D-Glu24, αMeY25, C-term NH2; Z1=AEEA3-(γ-Glu)-CO-(CH2)10-CH3
B13: Y-Aib-EGT-αMeF(2F)-TSD-4Pal-Aib-I-αMeL-LD-Orn-QAQ-Aib-Orn-FIK((2-[2-(2-Amino-ethoxy)-ethoxy]-acetyl)2-(γ-Glu)-(11-(4-carboxyphenoxy)undecanoyl)-αMeY-LIK((2-[2-( … (peptide)
peptide: B1 peptide with S11X, K17Q, X24K
modifications: Aib2, αMeF(2F)6, 4Pal10, Aib11, αMeL13, Orn16, Aib20, Orn21, K24(Z1), αMeY25, K28(Z1), C-term NH2; Z1=AEEA2-(γ-Glu)-(11-(4-carboxyphenoxy)undecanoyl)
B14: Y-Aib-EGT-αMeF(2F)-TSD-4Pal-SI-αMeL-LD-Orn-K((2-[2-(2-Amino-ethoxy)-ethoxy]-acetyl)2-(γ-Glu)-CO-(CH2)10-CH3)AQ-Aib-EFI-(D-Glu)-αMeY-LIEGGK((2-[2-(2-Amino-ethoxy … (peptide)
peptide: B1 peptide with X21E, K28E, P31K
modifications: Aib2, αMeF(2F)6, 4Pal10, αMeL13, Orn16, K17(Z1), Aib20, D-Glu24, αMeY25, K31(Z1), C-term NH2; Z1=AEEA2-(γ-Glu)-CO-(CH2)10-CH3
B15: Y-Aib-EGT-αMeF(2F)-TSD-4Pal-Aib-I-αMeL-LD-Orn-K((2-[2-(2-Amino-ethoxy)-ethoxy]-acetyl)3-(γ-Glu)-CO-(CH2)10-CH3)AQ-Aib-K((2-[2-(2-Amino-ethoxy)-ethoxy]-acetyl)3- … (peptide)
peptide: B1 peptide with S11X, X21K, K28X
modifications: Aib2, αMeF(2F)6, 4Pal10, Aib11, αMeL13, Orn16, K17(Z1), Aib20, K21(Z1), D-Glu24, αMeY25, Orn28, C-term NH2; Z1=AEEA3-(γ-Glu)-CO-(CH2)10-CH3

target: T2, human GLP-1 receptor (human, UniProt P43220 24-463); assay: SPA competition vs [125I]-GLP-1, hGLP-1R membranes
T2 construct: whole, on cells; also called hGLP-1R; human glucagon-like peptide-1 receptor
Procedure, shortened: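 Competition binding in 25 mM HEPES pH 7.4, 2.5 mM CaCl₂, 1 mM MgCl₂, 0.1% bacitracin, 0.003% TWEEN-20, EDTA-free protease inhibitors. IC₅₀ from four-parameter nonlinear fit; Kᵢ given as geometric mean ± SEM, n = independent replicates on different days.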

Row | Binder | Ki [pM]
1 | B1 | 101
2 | B2 | 275
3 | B3 | 139
4 | B4 | 346
5 | B5 | 325
6 | B6 | 194
7 | B7 | 362
8 | B8 | 373
9 | B9 | 1220
10 | B10 | 167
11 | B11 | 150
12 | B12 | 134
13 | B13 | 164
14 | B14 | 154
15 | B15 | 187

target: T1, human GIP receptor; assay: SPA competition vs [125I]-GIP, hGIPR membranes

Row | Binder | Ki [pM]
16 | B1 | 21.5
17 | B2 | 20.7
18 | B3 | 24
19 | B4 | 27.9
20 | B5 | 19.5
21 | B6 | 22.9
22 | B7 | 50.1
23 | B8 | 31.2
24 | B9 | 57.8
25 | B10 | 21.4
26 | B11 | 9.65
27 | B12 | 13.4
28 | B13 | 50.7
29 | B14 | 30.9
30 | B15 | 17.5

target: T3, human glucagon receptor (human, UniProt P47871 26-477); assay: SPA competition vs [125I]-Gcg, hGcgR membranes
T3 construct: whole, on cells; also called hGCGR; hGcgR
T3 sequence (P47871 26-477): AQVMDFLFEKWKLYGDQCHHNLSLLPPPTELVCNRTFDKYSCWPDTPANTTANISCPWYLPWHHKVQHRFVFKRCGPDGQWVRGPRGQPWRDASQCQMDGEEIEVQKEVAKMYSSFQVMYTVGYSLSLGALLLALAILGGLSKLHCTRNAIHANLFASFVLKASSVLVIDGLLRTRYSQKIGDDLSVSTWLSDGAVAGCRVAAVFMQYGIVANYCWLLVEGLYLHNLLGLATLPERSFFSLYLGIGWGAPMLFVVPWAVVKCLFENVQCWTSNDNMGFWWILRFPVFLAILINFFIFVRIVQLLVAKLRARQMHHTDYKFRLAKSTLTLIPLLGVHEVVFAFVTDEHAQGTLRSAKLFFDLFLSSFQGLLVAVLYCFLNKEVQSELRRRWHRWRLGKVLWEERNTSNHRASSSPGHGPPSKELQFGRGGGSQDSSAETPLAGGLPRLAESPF
Protocol: The binding buffer contains 25 mM 4-(2-hydroxyethyl)-1-piperazineethanesulfonic acid (HEPES), pH 7.4, 2.5 mM CaCl₂, 1 mM MgCh, 0.1% (w/v) bacitracin (Research Products), 0.003% (w/v) Polyoxyethylenesorbitan monolaurate (TWEEN®-20), and Roche Complete™ Protease Inhibitors without EDTA. […] Plates are sealed and mixed on a plate shaker (setting 6) for 1 minute and read with a PerkinElmer Trilux MicroBeta® scintillation counter after 12 hours of incubation/settling time at room temperature.
Data are analyzed using four-parameter (curve maximum, curve minimum, IC₅₀, Hill slope) nonlinear regression routines (Genedata Screener, version 12.0.4, Genedata AG, Basal, Switzerland). […] Values for Kᵢ are reported as the geometric mean, with error expressed as the standard error of the mean (SEM) and n is equal to the number of independent replicates (determined in assays performed on different days).

Row | Binder | Ki [pM]
31 | B1 | 93300
32 | B2 | 85900
33 | B3 | 4290
34 | B4 | 289000
35 | B5 | 75500
36 | B6 | 33700
37 | B7 | 1460
38 | B8 | 131000
39 | B9 | 238000
40 | B10 | 58400
41 | B11 | 81200
42 | B12 | 356000
43 | B13 | 130000
44 | B14 | 44800
45 | B15 | 28300
